In general, Kd refers to a measure of binding affinity in units of concentration.

Numbering of substitutions follows the chain as printed.

T1: cyno MerTK extracellular domain (ECD), recombinant (cynomolgus monkey, UniProt Q12866 21-505 (human entry))
T1 construct: also called cynomolgus MerTK; not shown: polyHis tag or TEVS/Thrombin/murine IgG2a Fc tag
T1 chain: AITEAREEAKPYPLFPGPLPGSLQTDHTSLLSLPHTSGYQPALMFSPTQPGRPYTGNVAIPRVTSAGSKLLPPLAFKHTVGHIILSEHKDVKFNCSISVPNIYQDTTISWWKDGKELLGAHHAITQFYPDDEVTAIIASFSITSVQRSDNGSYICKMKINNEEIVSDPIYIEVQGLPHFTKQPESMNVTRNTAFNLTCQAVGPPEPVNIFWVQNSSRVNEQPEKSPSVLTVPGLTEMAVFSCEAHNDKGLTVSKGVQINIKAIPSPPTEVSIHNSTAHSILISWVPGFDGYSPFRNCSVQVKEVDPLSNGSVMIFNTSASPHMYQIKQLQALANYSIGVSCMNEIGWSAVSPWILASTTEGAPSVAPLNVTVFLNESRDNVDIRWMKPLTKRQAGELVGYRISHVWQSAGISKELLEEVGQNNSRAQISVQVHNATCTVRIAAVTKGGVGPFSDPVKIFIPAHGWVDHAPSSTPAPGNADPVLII

T2: human MerTK extracellular domain (ECD), recombinant (human, UniProt Q12866 21-505)
T2 construct: also called huMerTK; not shown: polyHis tag or TEVS/Thrombin/murine IgG2a Fc tag
T2 sequence: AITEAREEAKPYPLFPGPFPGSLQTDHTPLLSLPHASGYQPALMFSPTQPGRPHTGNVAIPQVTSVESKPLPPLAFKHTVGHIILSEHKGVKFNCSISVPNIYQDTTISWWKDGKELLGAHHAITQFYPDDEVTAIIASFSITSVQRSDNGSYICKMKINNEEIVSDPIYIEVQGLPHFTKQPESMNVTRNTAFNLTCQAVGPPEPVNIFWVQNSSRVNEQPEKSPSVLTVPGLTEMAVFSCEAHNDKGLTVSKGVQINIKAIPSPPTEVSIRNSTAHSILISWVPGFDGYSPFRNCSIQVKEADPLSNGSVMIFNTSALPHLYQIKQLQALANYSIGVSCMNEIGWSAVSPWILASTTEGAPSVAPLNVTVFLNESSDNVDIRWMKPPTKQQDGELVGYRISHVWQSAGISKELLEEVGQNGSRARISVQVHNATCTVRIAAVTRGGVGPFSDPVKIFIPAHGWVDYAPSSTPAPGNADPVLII

T3: murine MerTK extracellular domain (ECD), recombinant (mouse, UniProt Q60805 19-497)
T3 construct: also called moMerTK; mouse MerTK; not shown: polyHis tag or TEVS/Thrombin/murine IgG2a Fc tag
T3 sequence: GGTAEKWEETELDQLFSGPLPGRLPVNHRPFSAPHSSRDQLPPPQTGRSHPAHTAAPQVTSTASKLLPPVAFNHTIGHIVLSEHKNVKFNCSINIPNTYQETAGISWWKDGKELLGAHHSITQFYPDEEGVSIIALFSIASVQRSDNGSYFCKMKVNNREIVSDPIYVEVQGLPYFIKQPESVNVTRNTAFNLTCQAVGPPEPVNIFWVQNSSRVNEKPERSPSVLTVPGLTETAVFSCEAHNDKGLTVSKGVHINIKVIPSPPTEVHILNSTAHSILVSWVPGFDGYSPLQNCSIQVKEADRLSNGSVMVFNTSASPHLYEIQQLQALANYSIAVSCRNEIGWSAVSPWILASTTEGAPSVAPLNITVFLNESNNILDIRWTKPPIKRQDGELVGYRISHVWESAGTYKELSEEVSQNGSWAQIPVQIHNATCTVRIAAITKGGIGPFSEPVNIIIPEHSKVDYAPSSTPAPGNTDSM

B1: MTK-16 (antibody, human IgG1, V domains shown)
VH: LIQLVQSGPELKKPGETVKISCKASGYTFTNHGMNWVKQDPGKGLKWMGWINTYTGEPTYADDFKGRFVFSMETSASAAFLQINNLKNEDTATYFCARKGVTAARYFDYWGQGTTLTVSS
VL: DIVMTQSPKFMSTSVGDRVSITCKASQNVRTAVAWYKKKPGQSPKALINLASNRHTGVPDRFTGSGSGTDFTLTISNVQSEDLADYFCLQHWNYPLTFGGGTKLEIK
B2: MTK-27 (antibody, human IgG1, V domains shown)
VH: EVQLQQSGTELVRPGASVKLSCTASGFNIKDDYMHWVQQRPEQGLEWIGWIDPENGNTEYASKFQGKATITADASSNTAYLQLSSLTSEDTAVYYCSTLFSNYFDYWGQGTTLTVSS
VL: B1 VL with P8Q, A32S, K37Q, K38Q, N49Y, Q79R, L96Y
B3: MTK-11 (antibody, human IgG1, V domains shown)
VH: QVQLKQSGPGLVQPSQSLSITCTVSGFSLTDYGVHWVRQSPGKGLEWLGVIWSSGTTDYNEAFISRLSISKDNSKSHVFFKMNSLQAIDTAIYYCARKGHDPYAMDYWGQGTSVTVSS
VL: QIVLTQSPAIMSASLGERVTMTCTASSSISSSYFHWYQQKPGSSPKLWIYSTSNLPSGVPARFSGSGSGTSYSLTISSMEAEDAATYYCHQYYRSPLTFGAGTKLELK
B4: MTK-10 (antibody, human IgG1, V domains shown)
VH: QVTLKESGPGILQPSQTLSLTCSFSGFSLTTSGMGVGWIRQPSGKGLEWLAHIWSDDDKRSNPALKSRLTISQDSSTNQVFLKIASVDTADSATYYCSHLTPVREFAYWGPGTLVTVSE
VL: DIQMTQTTSSLSASLGDRVTISCSASQGISNYLNWFQQKPDGTVKLLIYYTSRLHSGVPSRFSGSGSGTDFSLTISNLEPEDIATYYCQQYTKLPYTFGGGTKLEIK
B5: MTK-15 (antibody, human IgG1, V domains shown)
VH: QIQLVQSGPELKKPGETVKISCKASGYTFTNYGVHWVKQAPGKGLKWMGWINTYTGEPTYADDFKGRFAFSLETSASTAYLQINNLKNEDMATYFCARGNRYAYMDYWGQGTSVTVSS
VL: QIVLSQSPAILSASPGEKVTMTCRASSSVSYMHWYQQKSGSSPKPWIYATSNLASGVPARFSGSGSGTSYSLTISRVEAEDAATYYCQQWSSNPRTFGGGTKLEIK
B6: MTK-06 (antibody, human IgG1, V domains shown)
VH: QIQLVQSGPELKKPGETVKISCKASGYTFTNYGMNWVKQAPGKGLKWMGWINTNTGEPTYAEEFKGRFAFSLETSASTAYLQINNLKNEDTATYFCARYYNYWYFDVWGAGTTVTVSS
VL: B5 VL with S39P, N93K, R95P
B7: MTK-24 (antibody, human IgG1, V domains shown)
VH: QVQLQQPGAELVKPGASVKLSCKASGYTFTSYWMHWVKQRPGQGLEWIGMIHPNINTNYNEKFKSKATLTVDISSSTAYMQLSSLTSEDSAVYYCAKRSPYSNYDWYFDVWGTGTTVTVSS
VL: DIQMTQSPASLSVSVGETVTITCRASENIYSNLAWYQQKQGKSPQLLVYAATNLADGVPSRFSGSGSGTQYSLKINSLQSEDFGSYYCQHFWGTPLTFGAGTKLELK
B8: MTK-28 (antibody, human IgG1, V domains shown)
VH: QIQLVQSGPELKKPGETVKISCKASGYTFTTYGMSWVKQAPGKGLKWMGWINTYSGVPTYADDFKGRFAFSLETSASTAYLQINTLKNEDTTTYFCARFLRYYYFDYWGQGTTLTVSS
VL: QIVLSQSPVILSASPGEKVTMTCRASSSVTYMHWYQQQPGSSPKPWIYATSNLASGVPARFSGSGSGTSYSLTISRVETEDAATYYCHQWSGNPTFGGGTKLEIN
B9: MTK-13 (antibody, human IgG1, V domains shown)
VH: DVQLQESGPGLVKPSQSLSLTCSVTGYSITSGYYWNWIRQFPGNKLEWMGNIDYDGSNKYNPSLKNRISITRDTSKNHFFLKLNSVTPEDTATYFCARDGGNYRSFAYWGQGTLVTVSA
VL: QIVLTQSPPIMSASPGEKVTITCSASSSVSYMYWFQQKPGTSPKLWIYSTFNLASGVPARFSGSGSGTSYSLTISRMEAEDVATYYCQQRSSYPFTFGSGTKLEIK
B10: MTK-26 (antibody, human IgG1, V domains shown)
VH: AVQFQESGPGLVKLSQSLSLTCSVTGYSITSGYYWDWIRQFPGNKLEWMGYISYDGSNNYNPSLKNRISITRDTSKNQFFLKLNSVTTEDTATYYCAREGGYYRSMDYWGQGTSVTVSS
VL: B9 VL with P9A, T22A, Y31F, Y33H, K44R, F51S, V82A
B11: MTK-12 (antibody, human IgG1, V domains shown)
VH: QVQLQQSGPQLVRPGASVKISCKASGYSFTSHWMHWVKQRPGQGLEWIGMIDPSDGESRLNQKFKDKATLTVDKSSSTAYMQLSSPTFEDSAVYYCARGIYYYGITYAMDYWGQGTSVTVSS
VL: QIVLTQSPAIMSASPGEKVTMTCSASSSVSYMYWYQQKPRSSPRLLIYDTSNLASGVPVRFSGSGSGTSYSLTISRMEAEDAATYYCQQWSSYPLTFGAGTKLELK

One test concerns the target T1, cyno MerTK extracellular domain (ECD), …. As to the kind of experiment: SPR, Carterra LSA, antibody immobilised. The method, then: (§1) Binding kinetics of human anti-MerTK IgG1 LALAPS antibodies of the present disclosure to human, cyno, and murine MerTK were evaluated using a Carterra LSA instrument (Carterra, Salt Lake City, Utah). Briefly, anti-MerTK antibodies were prepared by diluting to 10 μg/ml in 10 mM Acetate, pH 4.25 (Carterra), at 300 μl/well. A HC200M sensor chip (Carterra) was activated using the single channel flow cell with a 7-minute injection of a 1:1:1 mixture of 100 mM MES pH 5.5, 100 mM sulfo-NHS, 400 mM EDC (all reconstituted in MES pH 5.5; 100 μl of each mixed in vial immediately before running assay). After switching to the multi-channel array flow cell, the antibodies were injected over the activated chip in a 96-spot array for 15 minutes. The remaining unconjugated active groups on the chip were then blocked by injecting 1M Ethanolamine pH 8.5 (Carterra) for 7 minutes using the single channel flow cell.
(§2) After priming with running buffer (HBS-TE, Carterra) with 0.5 mg/ml BSA (Sigma), the immobilized anti-MerTK antibodies were tested for their ability to bind to several forms of recombinant MerTK extracellular domain, including human, cynomolgus, and mouse orthologs as described above. Estimates of affinity were generated by injecting each analyte over the entire antibody array using the single channel flow cell. MerTK analytes were diluted to 33.3, 100, and 300 nM in running buffer, and injected in serial from lowest to highest concentration without regeneration. Two buffer blanks were run between each series (one species per series). Data were processed and analyzed using NextGenKIT high-throughput kinetics analysis software (Carterra).
(§3) The equilibrium dissociation constants (KD) were then calculated from the fitted association and dissociation rate constants (k-on and k-off) for anti-MerTK antibodies of the present disclosure. Binding kinetic analysis was also performed on anti-MerTK antibodies H1 (BioLegend, Clone ID: 590H11G1E3), H2 (R&D systems, Clone ID: 125518), M6 (WO2016/106221), and CDX AB2000-A7 hIgG1 (WO2019/084307).
For orientation: Surface plasmon resonance follows binding to a sensor surface in real time, without labels.
Turning to B1, the equilibrium dissociation constant (Kd) was 1.6 nM.

Turning to B2, the dissociation constant (Kd) was 71 nM.

As for B3, the Kd was determined as 2.9 nM.

B4: the Kd worked out at 1.9 nM.

Consider B5, for which the Kd was 3 nM.

As for B6, the Kd was 17 nM.

For B7, the Kd is 44 nM.

In the case of B8, the dissociation constant (Kd) stood at 4.5 nM.

Take B9: the dissociation constant Kd turned out to be 39 nM.

Consider B10, for which the dissociation constant Kd came out at 30 nM.

Turning to B11, the binding result is “no binding (tested: 300 nM)”.

A further test addresses T2, human MerTK extracellular domain (ECD), …. As to the kind of experiment: SPR, Carterra LSA, antibody immobilised. The procedure: as §1, §2, §3
Consider B1, for which the equilibrium dissociation constant (Kd) was 1.4 nM.

As to B2, the Kd worked out at 71 nM.

Turning to B3, the dissociation constant Kd was found to be 3 nM.

As to B4, the Kd stood at 2 nM.

Regarding B5, the Kd turned out to be 2.7 nM.

With B6, the dissociation constant Kd was found to be 18 nM.

In the case of B7, the dissociation constant (Kd) amounted to 41 nM.

Regarding B8, the Kd turned out to be 4.1 nM.

On to B9, for which the dissociation constant (Kd) came to 37 nM.

B10: the dissociation constant Kd came to 30 nM.

Regarding B11, the Kd came out at 5.3 nM.

For another test, the target named is T3, murine MerTK extracellular domain …. As to the kind of experiment: SPR, Carterra LSA, antibody immobilised. The method, then:
as §1, §2, §3
Turning to B1, the binding result was “no binding (tested: 300 nM)”.

Take B2: the binding result is reported as “no binding (tested: 300 nM)”.

For B3, the binding result was “no binding (tested: 300 nM)”.

For B4, the binding result is on record as “no binding (tested: 300 nM)”.

Turning to B5, the binding result is given as “no binding (tested: 300 nM)”.

Take B6: the binding result is recorded as “no binding (tested: 300 nM)”.

As to B7, the Kd was found to be 55 nM.

On to B8, for which the binding result is “no binding (tested: 300 nM)”.

For the molecule B9, the binding result is on record as “no binding (tested: 300 nM)”.

In the case of B10, the binding result was “no binding (tested: 300 nM)”.

On to B11, for which the binding result is “no binding (tested: 300 nM)”.

Values taken from US20210261685A1 (Alector, published 2021).
